Blank lines part the entries; values can stand above or below the binder they belong to.
Experiments:
Assay in all cases: holdup assay
Set-up in all cases: key: below the threshold = too weak to quantify, mostly under pKd 3.1 to 4
Conditions in all cases: plain residues with an end cap or a label only (N-terminal biotin on a linker: ado-ado)
ARHGEF11, O15085 = target: T1, ARHGEF11, O15085
T1 sequence (O15085 42-136, limits assumed, looked up): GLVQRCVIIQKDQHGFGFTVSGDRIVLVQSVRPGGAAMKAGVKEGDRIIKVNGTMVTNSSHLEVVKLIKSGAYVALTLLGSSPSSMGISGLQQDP

DFNB31_2, Q9P202 = target: T2, DFNB31_2, Q9P202
T2 sequence (Q9P202 274-371, limits assumed, looked up): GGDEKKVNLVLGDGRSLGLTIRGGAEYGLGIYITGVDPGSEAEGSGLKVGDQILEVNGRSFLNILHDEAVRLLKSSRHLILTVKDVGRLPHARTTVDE

DLG3_1, Q92796 = target: T3, DLG3_1, Q92796
T3 sequence (Q92796 125-227, limits assumed, looked up): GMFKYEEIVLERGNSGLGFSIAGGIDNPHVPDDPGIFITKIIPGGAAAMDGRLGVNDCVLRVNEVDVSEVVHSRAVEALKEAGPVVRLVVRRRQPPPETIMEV

FRMPD2_2, Q68DX3 = target: FRMPD2_2, Q68DX3
FRMPD4, Q14CM0 = target: FRMPD4, Q14CM0
GOPC, Q9HD26 = target: GOPC, Q9HD26
GORASP2, Q9H8Y8 = target: GORASP2, Q9H8Y8
GRID2IP_2, A4D2P6 = target: GRID2IP_2, A4D2P6
GRIP1_7, Q9Y3R0 = target: T4, GRIP1_7, Q9Y3R0
T4 sequence (Q9Y3R0 999-1096, limits assumed, looked up): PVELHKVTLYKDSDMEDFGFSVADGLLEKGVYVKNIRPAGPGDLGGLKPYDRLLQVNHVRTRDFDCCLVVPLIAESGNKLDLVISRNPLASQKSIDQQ

HTRA3, P83110 = target: T5, HTRA3, P83110
T5 sequence (P83110 354-453, limits assumed, looked up): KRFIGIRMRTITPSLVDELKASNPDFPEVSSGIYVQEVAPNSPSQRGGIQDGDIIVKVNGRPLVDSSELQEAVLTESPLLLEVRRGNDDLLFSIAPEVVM

Inadl_1, Q8NI35 = target: Inadl_1, Q8NI35
Inadl_3, Q8NI35 = target: Inadl_3, Q8NI35
Inadl_5, Q8NI35 = target: Inadl_5, Q8NI35
LAP2, Q96RT1 = target: LAP2, Q96RT1
LIN7C, Q9NUP9 = target: T6, LIN7C, Q9NUP9
T6 sequence (Q9NUP9 88-185, limits assumed, looked up): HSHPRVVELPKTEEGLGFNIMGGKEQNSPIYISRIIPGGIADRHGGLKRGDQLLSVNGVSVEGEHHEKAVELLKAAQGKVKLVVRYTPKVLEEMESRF

LNX2_3, Q8N448 = target: T7, LNX2_3, Q8N448
T7 sequence (Q8N448 463-564, limits assumed, looked up): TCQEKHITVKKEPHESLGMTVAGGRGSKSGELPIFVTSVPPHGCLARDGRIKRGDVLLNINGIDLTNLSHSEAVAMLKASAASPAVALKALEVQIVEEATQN

MPDZ_5, O75970 = target: T8, MPDZ_5, O75970
T8 sequence (O75970 695-796, limits assumed, looked up): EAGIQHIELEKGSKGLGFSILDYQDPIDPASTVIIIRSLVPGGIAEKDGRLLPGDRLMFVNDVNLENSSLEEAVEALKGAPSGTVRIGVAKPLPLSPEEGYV

NHERF2_2, Q15599 = target: NHERF2_2, Q15599
PARD3B_1, Q8TEW8 = target: T9, PARD3B_1, Q8TEW8
T9 sequence (Q8TEW8 196-299, limits assumed, looked up): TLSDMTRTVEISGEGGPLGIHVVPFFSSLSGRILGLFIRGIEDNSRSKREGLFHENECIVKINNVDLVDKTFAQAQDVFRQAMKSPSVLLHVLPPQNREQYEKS

PDZD2_2, O15018 = target: T10, PDZD2_2, O15018
T10 sequence (O15018 329-429, limits assumed, looked up): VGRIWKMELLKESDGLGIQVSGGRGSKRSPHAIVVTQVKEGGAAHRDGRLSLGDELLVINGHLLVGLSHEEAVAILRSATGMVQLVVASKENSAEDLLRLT

SCRIB_2, Q14160 = target: SCRIB_2, Q14160
SNTA1, Q13424 = target: T11, SNTA1, Q13424
T11 sequence (Q13424 82-180, limits assumed, looked up): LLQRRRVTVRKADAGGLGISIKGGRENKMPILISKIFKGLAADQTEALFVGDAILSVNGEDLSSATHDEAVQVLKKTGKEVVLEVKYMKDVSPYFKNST

TJP1_2, Q07157 = target: TJP1_2, Q07157
TX1BP3, O14907 = target: T12, TX1BP3, O14907
T12 sequence (O14907 10-122, limits assumed, looked up): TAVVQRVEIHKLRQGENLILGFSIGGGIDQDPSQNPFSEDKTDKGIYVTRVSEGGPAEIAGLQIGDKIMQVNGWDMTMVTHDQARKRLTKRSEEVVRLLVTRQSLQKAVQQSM

Chain of FRMPD2_2, Q68DX3 (Q68DX3 944-1038): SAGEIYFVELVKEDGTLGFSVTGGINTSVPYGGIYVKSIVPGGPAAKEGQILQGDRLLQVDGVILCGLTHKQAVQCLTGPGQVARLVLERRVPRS
Chain of Inadl_3, Q8NI35 (Q8NI35 359-469): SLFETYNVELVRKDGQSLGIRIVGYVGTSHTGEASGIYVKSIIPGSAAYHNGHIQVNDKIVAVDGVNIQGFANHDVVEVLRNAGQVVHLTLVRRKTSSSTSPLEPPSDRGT
Chain of NHERF2_2, Q15599 (Q15599 142-238): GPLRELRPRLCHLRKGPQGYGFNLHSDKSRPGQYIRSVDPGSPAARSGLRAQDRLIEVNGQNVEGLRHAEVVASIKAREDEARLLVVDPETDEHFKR
Chain of Inadl_5, Q8NI35 (Q8NI35 673-780): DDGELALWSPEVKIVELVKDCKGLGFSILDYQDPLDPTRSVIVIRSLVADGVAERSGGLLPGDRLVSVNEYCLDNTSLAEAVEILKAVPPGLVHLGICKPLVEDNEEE
Chain of FRMPD4, Q14CM0 (Q14CM0 67-160): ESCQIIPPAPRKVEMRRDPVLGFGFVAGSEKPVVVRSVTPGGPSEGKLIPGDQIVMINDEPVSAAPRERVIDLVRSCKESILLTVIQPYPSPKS
Chain of LAP2, Q96RT1 (Q96RT1 other isoform, or with tags, fused parts or gaps): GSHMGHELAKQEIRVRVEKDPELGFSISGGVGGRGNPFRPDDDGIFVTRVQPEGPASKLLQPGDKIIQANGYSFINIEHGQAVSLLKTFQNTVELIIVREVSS
Chain of Inadl_1, Q8NI35 (Q8NI35 113-229): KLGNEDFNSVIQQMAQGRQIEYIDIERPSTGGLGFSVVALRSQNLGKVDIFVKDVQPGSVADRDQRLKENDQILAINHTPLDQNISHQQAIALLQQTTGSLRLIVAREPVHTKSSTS
Chain of SCRIB_2, Q14160 (Q14160 857-960): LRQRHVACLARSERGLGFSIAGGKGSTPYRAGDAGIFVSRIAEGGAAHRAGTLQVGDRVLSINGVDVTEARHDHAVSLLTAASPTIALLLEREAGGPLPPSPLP
Chain of TJP1_2, Q07157 (Q07157 181-274): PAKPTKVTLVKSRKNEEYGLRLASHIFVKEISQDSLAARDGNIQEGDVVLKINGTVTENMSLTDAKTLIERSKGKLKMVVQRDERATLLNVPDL
Chain of GRID2IP_2, A4D2P6 (A4D2P6 272-370): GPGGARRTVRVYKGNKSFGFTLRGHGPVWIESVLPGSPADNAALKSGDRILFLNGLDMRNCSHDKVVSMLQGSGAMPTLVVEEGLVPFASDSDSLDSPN

B3: DUSP5, Q16690 (peptide)
chain: RSPVATATSC
pKd (ARHGEF11, O15085): below the threshold | pKd (DFNB31_2, Q9P202): below the threshold | pKd (DLG3_1, Q92796): below the threshold | pKd (FRMPD2_2, Q68DX3): below the threshold | pKd (FRMPD4, Q14CM0): below the threshold | pKd (GOPC, Q9HD26): below the threshold | pKd (GORASP2, Q9H8Y8): below the threshold | pKd (GRID2IP_2, A4D2P6): 3.79 | pKd (GRIP1_7, Q9Y3R0): below the threshold | pKd (HTRA3, P83110): 3.89 | pKd (Inadl_1, Q8NI35): below the threshold | pKd (Inadl_3, Q8NI35): below the threshold | pKd (Inadl_5, Q8NI35): below the threshold | pKd (LAP2, Q96RT1): below the threshold | pKd (LIN7C, Q9NUP9): below the threshold | pKd (LNX2_3, Q8N448): below the threshold | pKd (MPDZ_5, O75970): below the threshold | pKd (NHERF2_2, Q15599): below the threshold | pKd (PARD3B_1, Q8TEW8): below the threshold | pKd (PDZD2_2, O15018): below the threshold | pKd (SCRIB_2, Q14160): below the threshold | pKd (SNTA1, Q13424): below the threshold | pKd (TJP1_2, Q07157): below the threshold | pKd (TX1BP3, O14907): below the threshold

B4: FAM167B, Q9BTA0 (peptide)
chain: NISARRFTLC
pKd (ARHGEF11, O15085): 3.86 | pKd (DFNB31_2, Q9P202): below the threshold | pKd (DLG3_1, Q92796): 3.98 | pKd (FRMPD2_2, Q68DX3): 3.67 | pKd (FRMPD4, Q14CM0): below the threshold | pKd (GOPC, Q9HD26): below the threshold | pKd (GORASP2, Q9H8Y8): 3.9 | pKd (GRID2IP_2, A4D2P6): 4.21 | pKd (GRIP1_7, Q9Y3R0): below the threshold | pKd (HTRA3, P83110): 4.54 | pKd (Inadl_1, Q8NI35): below the threshold | pKd (Inadl_3, Q8NI35): below the threshold | pKd (Inadl_5, Q8NI35): below the threshold | pKd (LAP2, Q96RT1): below the threshold | pKd (LIN7C, Q9NUP9): below the threshold | pKd (LNX2_3, Q8N448): below the threshold | pKd (MPDZ_5, O75970): below the threshold | pKd (NHERF2_2, Q15599): below the threshold | pKd (PARD3B_1, Q8TEW8): below the threshold | pKd (PDZD2_2, O15018): below the threshold | pKd (SCRIB_2, Q14160): below the threshold | pKd (SNTA1, Q13424): below the threshold | pKd (TJP1_2, Q07157): below the threshold | pKd (TX1BP3, O14907): below the threshold

B6: FAM71C, Q8NEG0 (peptide)
chain: STYCDYTIEI
pKd (ARHGEF11, O15085): 4 | pKd (DFNB31_2, Q9P202): below the threshold | pKd (DLG3_1, Q92796): below the threshold | pKd (FRMPD2_2, Q68DX3): below the threshold | pKd (FRMPD4, Q14CM0): below the threshold | pKd (GOPC, Q9HD26): below the threshold | pKd (GORASP2, Q9H8Y8): 4.41 | pKd (GRID2IP_2, A4D2P6): below the threshold | pKd (GRIP1_7, Q9Y3R0): below the threshold | pKd (HTRA3, P83110): 4.08 | pKd (Inadl_1, Q8NI35): 3.56 | pKd (Inadl_3, Q8NI35): 5 | pKd (Inadl_5, Q8NI35): below the threshold | pKd (LAP2, Q96RT1): below the threshold | pKd (LIN7C, Q9NUP9): below the threshold | pKd (LNX2_3, Q8N448): below the threshold | pKd (MPDZ_5, O75970): below the threshold | pKd (NHERF2_2, Q15599): below the threshold | pKd (PARD3B_1, Q8TEW8): 4.1 | pKd (PDZD2_2, O15018): 4.69 | pKd (SCRIB_2, Q14160): below the threshold | pKd (SNTA1, Q13424): below the threshold | pKd (TJP1_2, Q07157): 3.65 | pKd (TX1BP3, O14907): below the threshold

Further lines, results first:

pKd (ARHGEF11, O15085): below the threshold | pKd (DFNB31_2, Q9P202): below the threshold | pKd (DLG3_1, Q92796): below the threshold | pKd (FRMPD2_2, Q68DX3): below the threshold | pKd (FRMPD4, Q14CM0): below the threshold | pKd (GOPC, Q9HD26): below the threshold | pKd (GORASP2, Q9H8Y8): 4.61 | pKd (GRID2IP_2, A4D2P6): below the threshold | pKd (GRIP1_7, Q9Y3R0): below the threshold | pKd (HTRA3, P83110): 4.61 | pKd (Inadl_1, Q8NI35): below the threshold | pKd (Inadl_3, Q8NI35): below the threshold | pKd (Inadl_5, Q8NI35): 3.53 | pKd (LAP2, Q96RT1): below the threshold | pKd (LIN7C, Q9NUP9): below the threshold | pKd (LNX2_3, Q8N448): below the threshold | pKd (MPDZ_5, O75970): below the threshold | pKd (NHERF2_2, Q15599): below the threshold | pKd (PARD3B_1, Q8TEW8): 4.09 | pKd (PDZD2_2, O15018): 3.62 | pKd (SCRIB_2, Q14160): below the threshold | pKd (SNTA1, Q13424): below the threshold | pKd (TJP1_2, Q07157): below the threshold | pKd (TX1BP3, O14907): below the threshold
B1: NPSR1, Q6W5P4 (peptide)
chain: MQILSKPEFI

pKd (ARHGEF11, O15085): below the threshold | pKd (DFNB31_2, Q9P202): below the threshold | pKd (DLG3_1, Q92796): below the threshold | pKd (FRMPD2_2, Q68DX3): below the threshold | pKd (FRMPD4, Q14CM0): 3.86 | pKd (GOPC, Q9HD26): below the threshold | pKd (GORASP2, Q9H8Y8): below the threshold | pKd (GRID2IP_2, A4D2P6): below the threshold | pKd (GRIP1_7, Q9Y3R0): below the threshold | pKd (HTRA3, P83110): below the threshold | pKd (Inadl_1, Q8NI35): below the threshold | pKd (Inadl_3, Q8NI35): below the threshold | pKd (Inadl_5, Q8NI35): below the threshold | pKd (LAP2, Q96RT1): below the threshold | pKd (LIN7C, Q9NUP9): 4.12 | pKd (LNX2_3, Q8N448): below the threshold | pKd (MPDZ_5, O75970): below the threshold | pKd (NHERF2_2, Q15599): 3.5 | pKd (PARD3B_1, Q8TEW8): below the threshold | pKd (PDZD2_2, O15018): below the threshold | pKd (SCRIB_2, Q14160): below the threshold | pKd (SNTA1, Q13424): below the threshold | pKd (TJP1_2, Q07157): below the threshold | pKd (TX1BP3, O14907): 4.01
B2: HDAC7, Q8WUI4 (peptide)
chain: LVEEEEPMNL

pKd (ARHGEF11, O15085): 4.46 | pKd (DFNB31_2, Q9P202): below the threshold | pKd (DLG3_1, Q92796): 4.01 | pKd (FRMPD2_2, Q68DX3): 6.16 | pKd (FRMPD4, Q14CM0): 3.55 | pKd (GOPC, Q9HD26): below the threshold | pKd (GORASP2, Q9H8Y8): 4.48 | pKd (GRID2IP_2, A4D2P6): 4.06 | pKd (GRIP1_7, Q9Y3R0): 4.46 | pKd (HTRA3, P83110): 5.59 | pKd (Inadl_1, Q8NI35): 3.55 | pKd (Inadl_3, Q8NI35): 3.78 | pKd (Inadl_5, Q8NI35): 4.29 | pKd (LAP2, Q96RT1): 5.73 | pKd (LIN7C, Q9NUP9): 3.77 | pKd (LNX2_3, Q8N448): below the threshold | pKd (MPDZ_5, O75970): 3.79 | pKd (NHERF2_2, Q15599): 4.62 | pKd (PARD3B_1, Q8TEW8): 3.95 | pKd (PDZD2_2, O15018): 6.13 | pKd (SCRIB_2, Q14160): 4.94 | pKd (SNTA1, Q13424): 4.6 | pKd (TJP1_2, Q07157): below the threshold | pKd (TX1BP3, O14907): 4.62
B5: GAS2L2, Q8NHY3 (peptide)
chain: PLPPEEESWV

Reference: publication PMC9482650, “Quantitative fragmentomics allow affinity mapping of interactomes” (Nature Communications, 2022)
